Assay: soluble on expression in E. coli; label from the status in PepcDB or PDB records

Q: With “MTDAAEEVLLGKKGCTGVITLNRPKFLNALTLNMIRQIYPQLKKWEQDPETFLIIIKGAGGKAFCAGGDIRVISEAEKAKQKIAPVFFREEYMLNNAVGSCQKPYVALIHGITMGGGVGLSVHGQFRVATEKCLFAMPETAIGLFPDVGGGYFLPRLQGKLGYFLALTGFRLKGRDVYRAGIATHFVDSEKLAMLEEDLLALKSPSKENIASVLENYHTESKIDRDKSFILEEHMDKINSCFSANTVEEIIENLQQDGSSFALEQLKVINKMSPTSLKITLRQLMEGSSKTLQEVLTMEYRLSQACMRGHDFHEGVRAVLIDKDQSPKWKPADLKEVTEEDLNNHFKSLGSSDLKFAENLYFQ” as the sequence, how does the “soluble on expression in E. coli” value read?
A: Its value is “soluble”.

Q: Which “soluble on expression in E. coli” value does the source give for “MTDDKKIRAAIVGYGNIGRYALQALREAPDFEIAGIVRRNPAEVPFELQPFRVVSDIEQLESVDVALVCSPSREVERTALEILKKGICTADSFDIHDGILALRRSLGDAAGKSGAAAVIASGWDPGSDSVVRTLMQAIVPKGITYTNFGPGMSMGHTVAVKAIDGVKAALSMTIPLGTGVHRRMVYVELLPGHNLEEVSAAIKADEYFVHDETHVIQVDEVDALIDMGHGVRMVRKGVSGSTQNQRMSFDMEINNPALTGQVLVCAARAAMRQQPGAYTLQEIPVIDLLPGDREQWIGKLC” here?
A: Its value is “soluble”.

Q: With “MTDEFKKSTANLKKAVPLMIKNHVAATPANYALWYTYVDKTIPELNFEMDEVLEHYGICPPAANKQLYNNYVASRAETSLEDLKTNVEVLLHEVSSSMSDTLSDTSSFSAMVDKSFNKLEKVEDNSLSIEEVMVVIRQLVAESHEIRHSTKFLNRQLTNASEEISR” as the sequence, how does the “soluble on expression in E. coli” value read?
A: Its value is “not soluble”.

Q: For “MTDIQDVISPKLAVAIANPIFPAVDSLLRSGRHISTEHLDNHAFLMDFQNELDGFYRRYNVELIRAPEGFFYLRPKATTLIARSVLSELEMLVGKVLCYLYLSPERLAQQGIFSTQEVYDELLNLADEGKLLKAVNQRSSGSDLDKQKLAEKVRAAIGRLRRLGMIQTVGEQNSGKFTISESVFRFGAEVRSGDDPLESQARLIRDGEAATPDSLALEKQAQLMENDTKSADEIDEEFDGEQELEHHHHHH”, which “soluble on expression in E. coli” value is on record?
A: The value was “soluble”.

Q: With “MTDKTIAFSLLDLAPIPEGSSAREAFSHSLDLARLAEKRGYHRYWLAEHHNMTGIASAATSVLIGYLAANTTTLHLGSGGVMLPNHLPLVIAEQFGTLNTLYPGRIDLGLGRAPGSDQRTMMALRRHMSGDIDNFPRDVAELVDWFDARDPNPHVRPVPGYGEKIPVWLLGSSLYSAQLAAQLGLPFAFASHFAPDMLFQALHLYRSNFKPSARLEKPYAMVCINIIAADSNRDAEFLFTSMQQAFVKLRRGETGQLPPPIQNMDQFWSPSEQYDVQQALSMSLVGDKAKVRHGLQSILRETDADEIMVNGQIFDHQARLHSFELAMDVKEELLG” as the sequence, how does the “soluble on expression in E. coli” value read?
A: Its value is “not soluble”.

Q: For “MTDLNRTALPSRTDGTVEKTDTLVVGAGQAGVAMSEHLSRLGVPHLVLERNRIAEAWRSGRWDSLVANGPAWHDRFPGMEFDIDPDGFPGKDQVAAYFEAYAKRFDAPIRTGVEVRKVVRNVGRPGFTVDTSAGTIEANRVVAATGPFQRPVIPPIAPRDERIRQIHSAHYYNPQQLPEGAVLVVGAGSSGVQIADELQRAGRQVYLSVGAHDRPPRSYRNRDFCWWLGVLGEWDAEVAKPGREHVTIAVSGARGGHTVDFRALAHQGVTLVGLTESFVDGVATFRPDLAENLARGDENYLALLDAADAYIARNGLDLPEEPEARRRLPDPQCVTDPILELDLAEAGVGSIIWATGYAVDFGWLQVDAFDRDGKPRHQRGVSSEPGVYFIGLPWLSRRGSSFIWGVWHDARHVADHIAIQRKYLAYRDAAQRQEQDRASQAPQTSLQEVS”, which “soluble on expression in E. coli” value is on record?
A: Its value is “not soluble”.

Q: With “MTDPSQMQAEELLSFLEEGGTLKMLHDVSADTIEHIYAVGYNFFQSGKIEQAAKVFQLLSMLDHYQARFFIGLGAARQELGEYLQAIDAYSYAALVDINDPRPPFHSAECHLKLEQLTEAESGFYSAKEMSAGKSQYADLHQRAGIMLEAVRNKRSNLEHHHHHH” as the sequence, how does the “soluble on expression in E. coli” value read?
A: Its value is “soluble”.

Q: With “MTDQVFGKVSKVVCVGAGYVGGPTCAMIAHKCPHITVTVVDMNTAKIAEWNSDKLPIYEPGLDEIVFAARGRNLFFSSDIPKAIAEADLIFISVNTPTKMYGRGKGMAPDLKYVESVSRTIAQYAGGPKIVVEKSTVPVKAAESIGCILREAQKNNENLKFQVLSNPEFLAEGTAMKDLANPDRVLIGGESSPEGLQAVAELVRIYENWVPRNRIITTNTWSSELSKLVANAFLAQRISSINSISAVCEATGAEISEVAHAVGYDTRIGSKFLQASVGFGGSCFQKDVLSLVYLCESLNLPQVADYWQGVININNWQRRRFADKIIAELFNTVTDKKIAIFGFAFKKNTGDTRESSAIHVIKHLMEEHAKLSVYDPKVQKSQMLNDLASVTSAQDVERLITVESDPYAAARGAHAIVVLTEWDEFVELNYSQIHNDMQHPAAIFDGRLILDQKALREIGFRTFAIGTSPDQAYNLFGTAGY” as the sequence, how does the “soluble on expression in E. coli” value read?
A: Its value is “soluble”.

Q: For “MTDRGIVFNIQHFSIHDGPGIRTTVFLKGCPLRCPWCANPESQQKAPEQMLTSDGLNTKIVGEEKTVDEVIEEVLKDLDFYEESGGGMTLSGGEIFAQFDFALALLKAAKAAGLHTAIETTAFAKHEQFVTLVDYVDFIYTDLKHYNQLRHQKVTGVRNDLIIKNIHYAFQAGKEIVLRIPVIPQFNDSLDDAKAFSELFNQLEIDQVQLLPFHQFGENKYKLLGREYEMAEVKAYHPEDLADYQAVFLNHNIHCYF”, which “soluble on expression in E. coli” value is on record?
A: Its value is “not soluble”.

Q: Which “soluble on expression in E. coli” value does the source give for “MTDRYIAFANSPVGRRLVGAVGLPSPLRLERWQAGRVRPVDGPLVIGGSGALAEAVLPFAGKLTDAVFAAVDGQFELPRWTAEHSPRAKAVLFDASGLTRFEQLVALRDFFQPVLKGLDKCPKVVVLGRPPESLKDPVTASVQRSLEGFTRSLGKEIRRGGNVQLLYVGKGAEDQLEGALRFFLSPKSAYVSGQVIRLAANSAQVHDWSKPLAGQRALVTGAARGIGAAIAETLARDGAEVVLLDVPPAREALEGLAARLGGRAVALDICAADAGQQLVEALPEGVDIVVHNAGITRDKTLAKMSSDFWNSVINVNLNAPQVLTQALLDGGKLHDNGRVVLLASISGIAGNLGQSNYAVSKAGLIGLAQAWAPALGKRGITINAVAPGFIETQMTAAIPLTIREAGRRMNSMSQGGLPQDVAETVAWFAQPSSGAVSGQVL” here?
A: The value was “not soluble”.

Q: Which “soluble on expression in E. coli” value does the source give for “MTDSKYFTTTKKGEIFELKNELNSDKKEKKKEAVKKVIASMTVGKDVSALFPDVVNCMQTDNVELKKLVYLYLMNYAKSQPDLAIMAVNTFVKDCEDPNPLIRALAVRTMGCIRVEKITEYLCDPLRRCMKDEDPYVRKTAAVCVAKLHDMNPALVKEQGFVELLNDLLSDANPMVVANAVAALTEMNEQQTVIEVNSQMVNKLLTALNECTEWGQVFILDALAGYTPRDERETQNICERISPRLAHANAAVVLSTVKVLMKLIDMMPADSDFITQLTKKLAPPMVTLLSAEPEIQYVALRNINLIVQKRPDILKQEMKVFFVKYNDPIYVKMEKLDIMIRLAQQNNIAQVLSELKEYATEVDVDFVRKSVRAIGRCAIKVEASSERCVQTLLELIQTKVNYVVQEAVVVIKDIFRKYPNRYESIISALCENLDTLDEPEARASMIWIIGEYAERIDNADELLESFVEGFHDENTQVQLQLLTAVVKLFLKRPGVAQALVQRVLSLATQDSDNPDLRDRGFIYWRLLSADPAAAKNVVLTEKPLISEETDLLEPSLLEQLVCHIGTLASVYHKPPSAFIDPAKAPLRQINPIPAAKFGSSLLDTSSTPNAARNGSAAAPTVIPSQDQVIADLLSLDLNAPAASANTGAFGGAMSGTTSMGGLDDLLGLGGDPMPAAPTNSASYNPFDGLGGLGGAAPAAPPSQQPASIGGLAEIFGSGGFGGSSGITYPKELWLDASKAMGMQVEGTFVRRGGKIFMEMTITNRAMQAISGFALQFNKNSFGLIPVEQVNPAPILPNQSQNYTIACDTTGAVQVTTPLTNLQVSCSL” here?
A: Its value is “not soluble”.

Q: For “MTDSTPQGSTPGMSPEAILNGTGKPWEEWLKLLDDVKATSWTHTHIAKHIVDNFDVSGWWAQGIAIGYEYERGMRKPGMTSDGFAANASKTLNLPVEKVWKLFGDDDLRAQWLDPALIEKTSASEPRTFNAKWLADDSRVSVNFTSKGDNKSSFGIQHRRLPDQDSIPVMKAFWKERIAALVEVSKQFSLLEHHHHHH”, which “soluble on expression in E. coli” value is on record?
A: Its value is “soluble”.

Q: Which “soluble on expression in E. coli” value does the source give for “MTEADYGEMVRREKCIMFVKRFCPYSIRARELLHDRGVGCKIIEVDNNLDAYSFAKRNHSTFPVFFLDGDLVEGGCEKLLVLSDSNLPPFDKSPLLTQNREPVLLD” here?
A: Its value is “not soluble”.

Q: Which “soluble on expression in E. coli” value does the source give for “MTECLQTKKSNCKNCYKCIRHCPVKSLKFTDGQAHIVRDECVLCGECYVVCPQNAKQIRSDVEKAKQLVLKYDVYASIAPSFVAWFHNKSIHDMEQALIKLGFKGADETAKGAYIVKKQYEKMIEEKKSKIIISSCCHTVNTLIQRHYTGAIQYLADVVSPMLAHAQMLKKEHKGAKVVFIGPCISKKDEAEKYKGYVELVLTFDELDEWLKSENITIESNRGSSKEGRTRSFPVSGGIISSMDKDLGYHYMVVDGMENCINALENIERGEIDNCFIEMSACRGSCINGPPARRKSNNIVGAILAVNKNTGAKDFSVPMPEPEKLKKEFRFEGVHKIMPGGTAIEEILKKMGKTSIEHELNCGSCGYDTCRDKAVAVLNGKADLTMCLPYLKEKAESFSDAIIKNTPNGVIVLNEDLEIQQINNSAKRILNLSPSTDLLGSPVSRILDPIDYILALREGKNCYYKRKYFAEYKKYVDETIIYDKEYHVIIIIMRDVTEEEKIKALKNKQSEAAIEIADKVVEKQMRVVQEIALLLGETAAETKIALTKLKETMEDE” here?
A: The value was “not soluble”.

Q: With “MTEKLKNSKEVIAYIAECFPKCFTLEGEAKPLKIGIFQDLAERLNEDEKVSKTQLRAALRQYTSSWRYLHGVKPGAVRVDLDGNPCGELEEEHVEHAKATLAESKAKVQARRKEQAQKAREEGKAKAKPAANKKPQQPRRTNKPKVQKPTK” as the sequence, how does the “soluble on expression in E. coli” value read?
A: The value was “not soluble”.

Q: With “MTEMAKGSVTHQQLIALLSQEGANFRVVTHEAVGKCEAVSEIRGTALGQGAKALVCKVKGNGVNQHVLAILAADQQADLSQLASHIGGLRASLASPAEVDELTGCVFGAIPPFSFHPKLKLVADPLLFERFDEIAFNAGMLDKSVILKTADYLRIAQPELVNFRRTA” as the sequence, how does the “soluble on expression in E. coli” value read?
A: The value was “not soluble”.

Q: Which “soluble on expression in E. coli” value does the source give for “MTENFAQLFEESLKEIETRPGSIIRGTIVAVNKDNVIVDAGLKSESVISIDQFKNAAGEVEVVVGDEIDVALDATDDGFGETILSREKAKRHEAWQVLEKAYEEKETVIGVINGKVKGGFTVEVSDIRAFLPGSLVDVRPVRDTAHLEGKPLEFKVIKLDQKRNNVVVSRRAVIEAEGSAERDELLESLAEGQEVKGIVKNLTDYGAFVDLGGIDGLLHITDMAWKRVKHPSEIVNVGDEIQVKVLKFDRERTRVSLGMKQLGEDPWVAIANRYPEGSKLSGRVTNLTDYGCFVEIQEGVEGLVHVSEMDWTNKNIHPSKVVNLGDTVEVLVLEIDEERRRISLGLKQCIANPWEEFAKNFNKGDKVSGKIKSITDFGIFIGLDGGIDGLVHLSDISWAGGEEAVRDYKKGDEIDAIVLQVDPERERISLGVKQAEDDPFNMYLADKKKGAIVTGKVTEVDAKGATILLAESVEGYLRVSDISVERIEDASTVLKVGDDVEARFMGVDRKNRTISLSIKAKDQADEREAMDNLNQVEETGLSAMAAAFKNAKNLEHHHHHH” here?
A: Its value is “soluble”.

Q: Which “soluble on expression in E. coli” value does the source give for “MTEPLFVITDRPISVEDVMKKVMRPEAGAVAVFAGTVREWTNGKRTLFLQYEAYVSMAEKMLAQIGAEIAEKWPGAKTAITHRIGRLEIGDIAVVIAVSSPHRAEAYEANRYAIERIKQIVPIWKKEQWEDGSAWVGDQLETTAYPSGKPEVSEE” here?
A: The value was “soluble”.

Source: the DeepSol protein solubility set
